Data taken from the Immune Epitope Database (IEDB).

Tests used:
HLA-A*69:01 = assay: IEDB peptide-MHC binding, purified MHC/direct/fluorescence; filed as Kd, often an IC50 or EC50 that approximates it; ≥ and ≤ were set here for values at or beyond the usual limits of such assays
HLA-B*40:01 [1] = assay: as above
HLA-B*48:01 = assay: as above
HLA-A*31:01 [2] = assay: as above
HLA-A*03:01 [3] = assay: as above
HLA-B*08:01 = assay: as above
HLA-B*46:01 = assay: as above
HLA-A*29:02 = assay: as above
HLA-A*01:01 [4] = assay: as above
HLA-B*58:01 = assay: as above
HLA-A*02:01 [5] = assay: as above
HLA-B*27:05 = assay: as above
HLA-A*11:01 [6] = assay: as above
HLA-B*18:01 [7] = assay: as above
HLA-B*57:01 = assay: as above
HLA-B*44:02 = assay: as above
HLA-A*02:01 [8] = assay: IEDB peptide-MHC binding, purified MHC/competitive/fluorescence; filed as Kd, often an IC50 or EC50 that approximates it; ≥ and ≤ were set here for values at or beyond the usual limits of such assays; conditions: source organism: Mycobacterium tuberculosis variant bovis BCG str. Pasteur 1173P2
HLA-B*07:02 [9] = assay: IEDB peptide-MHC binding, purified MHC/direct/fluorescence; filed as Kd, often an IC50 or EC50 that approximates it; ≥ and ≤ were set here for values at or beyond the usual limits of such assays; conditions: source organism: Mycobacterium tuberculosis
HLA-B*51:01 [10] = assay: IEDB peptide-MHC binding, purified MHC/competitive/fluorescence; filed as Kd, often an IC50 or EC50 that approximates it; ≥ and ≤ were set here for values at or beyond the usual limits of such assays; conditions: source organism: Mycobacterium tuberculosis variant bovis
HLA-B*15:01 = assay: IEDB peptide-MHC binding, purified MHC/direct/fluorescence; filed as Kd, often an IC50 or EC50 that approximates it; ≥ and ≤ were set here for values at or beyond the usual limits of such assays; conditions: source organism: Mycobacterium tuberculosis variant bovis
HLA-B*40:01 [11] = assay: IEDB peptide-MHC binding, purified MHC/competitive/radioactivity; filed as Kd, often an IC50 or EC50 that approximates it; ≥ and ≤ were set here for values at or beyond the usual limits of such assays; conditions: source organism: Hepatitis C virus (isolate 1)
HLA-B*35:01 = assay: as above; conditions: source organism: Hepatitis C virus (isolate 1)
HLA-A*31:01 [12] = assay: as above; conditions: source organism: Hepatitis C virus (isolate 1)
HLA-A*03:01 [13] = assay: as above; conditions: source organism: Hepatitis C virus (isolate 1)
HLA-A*01:01 [14] = assay: as above; conditions: source organism: Hepatitis C virus (isolate 1)
HLA-A*33:01 = assay: as above; conditions: source organism: Hepatitis C virus (isolate 1)
HLA-B*54:01 = assay: as above; conditions: source organism: Hepatitis C virus (isolate 1)
HLA-B*53:01 = assay: as above; conditions: source organism: Hepatitis C virus (isolate 1)
HLA-B*40:02 = assay: as above; conditions: source organism: Hepatitis C virus (isolate 1)
HLA-A*02:06 = assay: as above; conditions: source organism: Hepatitis C virus (isolate 1)
HLA-A*02:01 [15] = assay: as above; conditions: source organism: Hepatitis C virus (isolate 1)
HLA-A*02:02 = assay: as above; conditions: source organism: Hepatitis C virus (isolate 1)
HLA-A*68:02 = assay: as above; conditions: source organism: Hepatitis C virus (isolate 1)
HLA-A*02:03 = assay: as above; conditions: source organism: Hepatitis C virus (isolate 1)
HLA-A*68:01 = assay: as above; conditions: source organism: Hepatitis C virus (isolate 1)
HLA-B*44:03 = assay: as above; conditions: source organism: Hepatitis C virus (isolate 1)
HLA-A*11:01 [16] = assay: as above; conditions: source organism: Hepatitis C virus (isolate 1)
HLA-B*18:01 [17] = assay: as above; conditions: source organism: Hepatitis C virus (isolate 1)
HLA-B*51:01 [18] = assay: as above; conditions: source organism: Hepatitis C virus (isolate 1)
HLA-B*07:02 [19] = assay: as above; conditions: source organism: Hepatitis C virus (isolate 1)
[20] = source organism: Mycobacterium tuberculosis C
[21] = source organism: Mycobacterium tuberculosis
[22] = source organism: Mycobacterium tuberculosis variant bovis
[23] = source organism: Mammarenavirus juninense

IIRTENRPL
Kd (HLA-A*69:01; [20]): ≥ 20 µM | Kd (HLA-B*40:01 [1]; [20]): ≥ 20 µM | Kd (HLA-B*48:01; [20]): ≥ 20 µM | Kd (HLA-A*31:01 [2]; [20]): ≥ 20 µM | Kd (HLA-A*03:01 [3]; [20]): ≥ 20 µM | Kd (HLA-B*08:01; [20]): 3.06 µM | Kd (HLA-B*46:01; [20]): ≥ 20 µM | Kd (HLA-A*29:02; [20]): ≥ 20 µM | Kd (HLA-A*01:01 [4]; [20]): ≥ 20 µM | Kd (HLA-B*58:01; [20]): ≥ 20 µM | Kd (HLA-A*02:01 [5]; [20]): ≥ 20 µM | Kd (HLA-B*27:05; [20]): ≥ 20 µM | Kd (HLA-A*11:01 [6]; [20]): ≥ 20 µM | Kd (HLA-B*18:01 [7]; [20]): ≥ 20 µM | Kd (HLA-B*57:01; [20]): ≥ 20 µM | Kd (HLA-B*44:02; [20]): ≥ 20 µM

IQAVFGFSL
Kd (HLA-A*02:01 [8]): 1.35 µM | Kd (HLA-A*69:01; [21]): ≥ 20 µM | Kd (HLA-A*31:01 [2]; [21]): ≥ 20 µM | Kd (HLA-A*03:01 [3]; [21]): ≥ 20 µM | Kd (HLA-B*46:01; [21]): ≥ 20 µM | Kd (HLA-A*29:02; [21]): ≥ 20 µM | Kd (HLA-A*01:01 [4]; [21]): ≥ 20 µM | Kd (HLA-B*58:01; [21]): ≥ 20 µM | Kd (HLA-B*27:05; [21]): ≥ 20 µM | Kd (HLA-A*11:01 [6]; [21]): ≥ 20 µM | Kd (HLA-B*57:01; [21]): ≥ 20 µM | Kd (HLA-B*07:02 [9]): ≥ 20 µM | Kd (HLA-B*44:02; [21]): ≥ 20 µM

TPREAPYEL
Kd (HLA-B*51:01 [10]): ≥ 20 µM | Kd (HLA-A*69:01; [22]): ≥ 20 µM | Kd (HLA-B*40:01 [1]; [22]): ≥ 20 µM | Kd (HLA-B*48:01; [22]): ≥ 20 µM | Kd (HLA-A*31:01 [2]; [22]): ≥ 20 µM | Kd (HLA-A*03:01 [3]; [22]): ≥ 20 µM | Kd (HLA-B*15:01): ≥ 20 µM | Kd (HLA-B*08:01; [22]): 7 µM | Kd (HLA-B*46:01; [22]): ≥ 20 µM | Kd (HLA-A*29:02; [22]): ≥ 20 µM | Kd (HLA-A*01:01 [4]; [22]): ≥ 20 µM | Kd (HLA-B*58:01; [22]): ≥ 20 µM | Kd (HLA-A*02:01 [5]; [22]): ≥ 20 µM | Kd (HLA-B*27:05; [22]): ≥ 20 µM | Kd (HLA-A*11:01 [6]; [22]): ≥ 20 µM | Kd (HLA-B*18:01 [7]; [22]): ≥ 20 µM | Kd (HLA-B*57:01; [22]): ≥ 20 µM | Kd (HLA-B*44:02; [22]): ≥ 20 µM

HSKKKCDEL
Kd (HLA-B*40:01 [11]): ≥ 76.2 µM | Kd (HLA-B*35:01): ≥ 77.4 µM | Kd (HLA-A*31:01 [12]): ≥ 65 µM | Kd (HLA-A*03:01 [13]): ≥ 78 µM | Kd (HLA-A*01:01 [14]): 3.52 µM | Kd (HLA-A*33:01): ≥ 77.7 µM | Kd (HLA-B*54:01): ≥ 78.1 µM | Kd (HLA-B*53:01): ≥ 78.2 µM | Kd (HLA-B*40:02): ≥ 77.3 µM | Kd (HLA-A*02:06): ≥ 77.1 µM | Kd (HLA-A*02:01 [15]): ≥ 69.4 µM | Kd (HLA-A*02:02): ≥ 70 µM | Kd (HLA-A*68:02): ≥ 69.8 µM | Kd (HLA-A*02:03): ≥ 78.1 µM | Kd (HLA-A*68:01): ≥ 77.7 µM | Kd (HLA-B*44:03): ≥ 78.2 µM | Kd (HLA-A*11:01 [16]): ≥ 37.3 µM | Kd (HLA-B*18:01 [17]): ≥ 77.5 µM | Kd (HLA-B*51:01 [18]): ≥ 77.5 µM | Kd (HLA-B*07:02 [19]): ≥ 77.5 µM

ATDPVEMAL
Kd (HLA-A*29:02; [23]): ≥ 20 µM | Kd (HLA-A*01:01 [4]; [23]): 0.308 µM
